Experimental data published in patent US20190010233A1 (JIANGSU HYAMAB PHARMACEUTICAL, published 2019).
Where a chain is given by its changes, count along the chain named.

B1: chimeric anti-PD-L1 antibody 73D3G2 (antibody, V domains shown)
VH: EVQLVESGGGLVQPGGSLRLSCAASGFTFNTYWMNWVRQAPGRGLEWVANIKQDGGEKYYVDSVKGRFTISRDNAKNSLYLQMNSLRAEDTAMYYCARDGRSWYPDAFDIWGQGTVVTVSS
VL: DIQMTQSPSTLSASVGDRVTITCRASQSISTWLAWYQQKLGKAPKLLIYEVSILESGVPSRFSGSGSGTEFTLTISSLQPDDFATYYCQQYHSFSSFGGGTRVEIK
notes: Purified from hybridoma of Harbour H2L2 mice: human variable regions, rat constant regions
B2: chimeric anti-PD-L1 antibody 105C5D7 (antibody, V domains shown)
VH: EVQLVESGGGLVQPGGSLRLSCAASGFTFSSYWMSWVRQAPGKGLEWVANIKQDGNEKYYVDSVKGRFTISRDNAKNSLYLQMNSLRAEDTAVYYCARNIKWGDAFDIWGQGTMVTVSS
VL: DIQMTQSPSSLSASVGDRVTITCRASQSISSYLNWYQQKPGKAPKLLIYAASSLQSGVPSRFSGSGSGTDFTLTISSLQPEDFAIYSCQQSYSIPLTFGGGTKVEIK
notes: as for B1
B3: chimeric anti-PD-L1 antibody 78A11F6 (antibody, V domains shown)
VH: EVQLVESGGGLVQPGGSLRLSCAASGITFSSYWMSWVRQTPGKGLEWVANIKQDGSEKYYVKSVKGRFTISRDNAKNSLYLQMNSLRAEDTAVYYCVRDRAVPGTGAFDIWGQGTMVIVSS
VL: DIQMTQSPSTLSASVGDRVTITCRASQSISNWLAWYQQKPGKAPKLLIYKASSLESGVPSRFSGSGSGTEFTLTISSLQPDDFATYYCQQYDSSLFTFGQGTKLEIK
notes: as for B1
B4: chimeric anti-PD-L1 antibody 127D2F3 (antibody, V domains shown)
VH: EVQLVESGGGLVQPGGSLRLSCVASGFTFSSYWMSWVRQAPGKGLEWVANIKQDGSEKYYVDSVKGRLTISRDNAKNSLYLQMKSLRAEDTAVYYCARDPIYSSYFDYWGQGILVTVSS
VL: B2 VL with S31N, I85A, S87Y, S93G, L96F, G100P, E105D
notes: as for B1
B5: chimeric anti-PD-L1 antibody 73G11B3 (antibody, V domains shown)
VH: B3 VH with A23V, A24V, I27F, K62D, F68L, F108L, I118T
VL: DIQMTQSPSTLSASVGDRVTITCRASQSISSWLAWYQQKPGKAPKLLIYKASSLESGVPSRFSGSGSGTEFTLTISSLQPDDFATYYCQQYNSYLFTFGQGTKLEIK
notes: as for B1
B6: chimeric anti-PD-L1 antibody 192D9E7 (antibody, V domains shown)
VH: EVQLVESGGGLVQPGGSLRLSCAASGFTFSSYWMSWVRQAPGKGLEWVADIKQDGSEKYYVDSVKGRFTISRDNAKNSLYLQMNSLRAEDTAVYYCTRDKPHWGGVMDAWGQGTSVTVSS
VL: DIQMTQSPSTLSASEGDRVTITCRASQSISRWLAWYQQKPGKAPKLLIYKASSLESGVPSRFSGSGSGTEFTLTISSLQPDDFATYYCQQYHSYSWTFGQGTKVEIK
notes: as for B1

biological target: T1, full length cyno PD-L1 on cells (cyno, UniProt G7PSE7 19-290); test: FACS CHO-K1-cPD-L1, 0.41 nM mAb
T1 construct: also called CHO-K1-cPD-L1
Protocol: (§1) Other CHO-K1 were stably transfected with a pIRES plasmid containing the nucleic acid sequence encoding full length cyno PD-L1 to generate CHO-K1 cells stably expressing cyno PD-L1 (herein referred to as CHO-K1-cPD-L1 cells). […] The culture media was aspirated, and the cells were washed twice with HBSS (Hanks Balanced Salt Solution, Invitrogen). The cells were treated with enzyme-free cell dissociation solution (Versene solution, Invitrogen) and collected. The cells were then washed twice with HBSS, cell counts were determined, and cells were resuspended with HBSS at 2×10⁶ cells/mL. Goat serum was added to the cell suspension to a final concentration of 1%, and the cells were blocked for 30 minutes on ice and then washed twice with HBSS. The cells were collected after centrifugation and resuspended in FACS buffer (HBSS+1% BSA, v/v) at 2×10⁶ cells/mL. 100 μL of the cell suspension were then added to each well of 96-well plate. 100 μL of purified anti-PD-L1 antibodies from Example 2 were added to each well of the 96-well plate and incubated for 2 hours on ice. […] The samples were washed three times with FACS buffer, and 100 μL fixation buffer (4% paraformaldehyde v/v) were added to each well and incubated for 10 minutes. The cells were then washed twice with FACS buffer and resuspended in 100 μL FACS buffer. The mean fluorescence intensity (MFI) was determined using FACS Calibur (BD), and the results are shown in FIGS. 7-8 and in Tables 10-11.

T1 sequence (G7PSE7 entry or part of it limits assumed): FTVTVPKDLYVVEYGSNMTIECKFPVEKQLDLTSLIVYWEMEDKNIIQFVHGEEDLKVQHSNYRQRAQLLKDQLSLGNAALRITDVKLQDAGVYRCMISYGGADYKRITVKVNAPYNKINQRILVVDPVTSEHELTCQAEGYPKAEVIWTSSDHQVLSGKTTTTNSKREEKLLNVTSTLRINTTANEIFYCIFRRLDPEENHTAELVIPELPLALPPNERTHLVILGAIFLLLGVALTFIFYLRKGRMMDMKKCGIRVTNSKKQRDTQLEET

Row | Mean fluorescence intensity | Binder
1 | 83.2 | B1
2 | 83.8 | B2
3 | 74.5 | B3

biological target: T2, full length human PD-L1 on cells (human, UniProt Q9NZQ7 19-290); test: FACS CHO-K1-hPD-L1, 3.70 nM mAb
T2 construct: Also used as the target of the cell-based functional assays (transfected stimulator cells; PD-L1 of the cells in the mixed lymphocyte reaction); also called CHO-K1-hPD-L1; CHOK1-hPD-L1
Protocol: as §1

T2 sequence (Q9NZQ7 19-290 limits assumed): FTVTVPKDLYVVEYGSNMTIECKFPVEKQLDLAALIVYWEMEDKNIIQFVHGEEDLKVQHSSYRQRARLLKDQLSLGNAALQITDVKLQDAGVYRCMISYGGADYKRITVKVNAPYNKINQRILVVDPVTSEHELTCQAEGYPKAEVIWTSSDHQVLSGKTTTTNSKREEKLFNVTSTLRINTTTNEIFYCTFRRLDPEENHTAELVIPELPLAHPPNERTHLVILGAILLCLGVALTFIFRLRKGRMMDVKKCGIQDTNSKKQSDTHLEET

Row | Mean fluorescence intensity | Binder
4 | 113 | B1
5 | 203 | B2
6 | 199 | B3

biological target: T3, human PD-L1^ECD-hFc protein (human, UniProt Q9NZQ7 19-239, biotinylated in the PD-1 binding ELISA (Table 3) and in the Octet assay (Table 12)); test: ELISA, 30 nM mAb
T3 construct: The plain and the biotinylated protein are kept as one molecule; also called PD-L1-hFc; Immunogen A; not shown: human IgG Fc fragment (hFc)
Protocol: (§2) 100 μL of the diluted recombinant proteins were added to each well of 96-well plate. The plates were sealed with plastic film and incubated at 4° C. overnight. The plates were washed twice with wash buffer (PBS+0.01% (v/v) Tween20), and incubated with blocking buffer (PBS+0.01% (v/v) Tween20+1% (w/w) BSA) at room temperature for 2 hours. The blocking buffer was aspirated away, and 100 μL of purified anti-PD-L1 antibodies were added to each well and incubated for 2 hours at 37° C. The plates were washed three times with wash buffer (PBS+0.01% (v/v) Tween20). HRP-conjugated secondary antibody (Sigma) was added to each well and incubated for 2 hours at 37° C. After the plates were washed three times with wash buffer, 100 μL TMB substrate were added to each well, and the plates were incubated for 30 minutes at room temperature. 100 μL stop solution (0.1N HCl) was added to each well to stop the reaction.

T3 sequence (Q9NZQ7 19-239): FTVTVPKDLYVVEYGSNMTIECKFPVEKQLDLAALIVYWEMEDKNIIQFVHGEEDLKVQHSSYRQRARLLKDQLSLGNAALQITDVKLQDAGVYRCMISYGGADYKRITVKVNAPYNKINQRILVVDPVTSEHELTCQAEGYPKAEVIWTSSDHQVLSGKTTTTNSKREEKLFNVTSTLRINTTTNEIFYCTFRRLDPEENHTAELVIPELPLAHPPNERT

Row | OD450 nm | Binder
7 | 1.81 | B1
8 | 1.53 | B2
9 | 1.95 | B3

biological target: T4, cyno PD-L1^ECD-hFc protein (cyno, UniProt G7PSE7 19-239); test: ELISA, 30 nM mAb
T4 construct: also called Cyno Monkey PD-L1^ECD-hFc
Protocol: as §2

T4 sequence (G7PSE7 entry or part of it limits assumed): as the sequence (Q9NZQ7 19-239) above, with A33T, A34S, S62N, R68Q, Q82R, F173L, T185A, T192I, H215L counted along it

Row | OD450 nm | Binder
10 | 1.81 | B1
11 | 1.53 | B2
12 | 2.06 | B3

biological target: T1, full length cyno PD-L1 on cells; test: FACS CHO-K1-cPD-L1, 0.14 nM mAb
Protocol: as §1

Row | Mean fluorescence intensity | Binder
13 | 44.3 | B1
14 | 42 | B2
15 | 38.3 | B3

biological target: T2, full length human PD-L1 on cells; test: FACS CHO-K1-hPD-L1, 11.11 nM mAb

Row | Mean fluorescence intensity | Binder
16 | 114 | B1
17 | 201 | B2
18 | 210 | B3

biological target: T3, human PD-L1^ECD-hFc protein; test: ELISA, 1.111 nM mAb
Protocol: as §2

Row | OD450 nm | Binder
19 | 1.81 | B1
20 | 1.32 | B2
21 | 1.86 | B3

biological target: T4, cyno PD-L1^ECD-hFc protein; test: ELISA, 1.111 nM mAb
Protocol: as §2

Row | OD450 nm | Binder
22 | 1.81 | B1
23 | 1.32 | B2
24 | 1.92 | B3

biological target: T2, full length human PD-L1 on cells; test: cell-based or functional assay

Row | IL-2 (pg/mL), MLR donor1, 0.001 µg/mL mAb [pg/mL] | IL-2 (pg/mL), MLR donor1, 0.01 µg/mL mAb [pg/mL] | IL-2 (pg/mL), MLR donor1, 0.1 µg/mL mAb [pg/mL] | IL-2 (pg/mL), MLR donor1, 1 µg/mL mAb [pg/mL] | IL-2 (pg/mL), MLR donor1, 10 µg/mL mAb [pg/mL] | Binder
25 | 226 | 274 | 429 | 497 | 440 | B4
26 | 216 | 365 | 453 | 426 | 477 | B5
27 | 211 | 371 | 473 | 461 | 488 | B6

biological target: T3, human PD-L1^ECD-hFc protein; test: ELISA, 0.1 nM mAb
Protocol: as §2

Row | OD450 nm | Binder
28 | 1.65 | B4
29 | 0.88 | B5
30 | 1.55 | B6

biological target: T3, human PD-L1^ECD-hFc protein; test: ELISA, 0.041 nM mAb
Protocol: as §2

Row | OD450 nm | Binder
31 | 0.36 | B1
32 | 0.34 | B2
33 | 0.37 | B3

biological target: T4, cyno PD-L1^ECD-hFc protein; test: ELISA, 0.041 nM mAb
Protocol: as §2

Row | OD450 nm | Binder
34 | 0.36 | B1
35 | 0.34 | B2
36 | 0.45 | B3

biological target: T3, human PD-L1^ECD-hFc protein; test: ELISA, 0.001 nM mAb
Protocol: as §2

Row | OD450 nm | Binder
37 | 0.24 | B4
38 | 0.21 | B5
39 | 0.25 | B6

biological target: T2, full length human PD-L1 on cells; test: FACS CHO-K1-hPD-L1, 0.0001 nM mAb
Protocol: as §1

Row | Mean fluorescence intensity | Binder
40 | 4.04 | B4
41 | 1.87 | B5
42 | 3.58 | B6

biological target: T2, full length human PD-L1 on cells; test: FACS CHO-K1-hPD-L1, 33.33 nM mAb

Row | Mean fluorescence intensity | Binder
43 | 116 | B1
44 | 194 | B2
45 | 225 | B3

biological target: T2, full length human PD-L1 on cells; test: FACS CHO-K1-hPD-L1, 0.14 nM mAb
Protocol: as §1

Row | Mean fluorescence intensity | Binder
46 | 44.3 | B1
47 | 73.2 | B2
48 | 51.5 | B3

biological target: T3, human PD-L1^ECD-hFc protein; test: ELISA, 1 nM mAb
Protocol: as §2

Row | OD450 nm | Binder
49 | 2.8 | B4
50 | 2.7 | B5
51 | 2.77 | B6
